Test results as given in US5858678, “Apoptosis-regulating proteins” (St. Louis University, dated 1999).

Key:
[1] = biological target: GAL4 DNA binding domain alone (vectors pMA424 or pAS1) (yeast, UniProt P04386); experiment: yeast two-hybrid with the empty GAL4 DNA binding domain vectors
[2] = biological target: T1, yeast SNF1 protein bait (yeast, UniProt P06782); experiment: yeast two-hybrid in strain Y153, X-gal (W = White)
T1 sequence: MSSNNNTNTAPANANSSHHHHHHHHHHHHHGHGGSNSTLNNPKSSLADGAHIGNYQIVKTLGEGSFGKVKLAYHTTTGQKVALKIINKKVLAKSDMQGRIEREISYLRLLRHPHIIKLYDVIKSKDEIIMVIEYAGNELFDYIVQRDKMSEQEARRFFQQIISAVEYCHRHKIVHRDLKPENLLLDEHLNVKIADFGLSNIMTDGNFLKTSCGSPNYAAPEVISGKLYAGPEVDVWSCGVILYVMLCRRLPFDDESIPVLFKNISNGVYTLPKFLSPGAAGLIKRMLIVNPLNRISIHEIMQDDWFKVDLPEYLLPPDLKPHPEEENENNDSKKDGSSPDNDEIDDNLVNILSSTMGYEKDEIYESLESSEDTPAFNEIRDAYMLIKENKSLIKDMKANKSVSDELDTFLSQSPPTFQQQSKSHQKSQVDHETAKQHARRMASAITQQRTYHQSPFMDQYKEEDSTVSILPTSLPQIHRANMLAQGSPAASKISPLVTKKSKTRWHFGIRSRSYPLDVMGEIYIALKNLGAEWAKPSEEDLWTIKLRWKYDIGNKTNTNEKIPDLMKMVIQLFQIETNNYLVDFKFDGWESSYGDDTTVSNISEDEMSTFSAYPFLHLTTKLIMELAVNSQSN
Protocol: To determine the specificity of the two hybrid interaction, the three clones, 22, 44 and 91, were tested against baits expressing several heterologous proteins (Table 1). Among the various heterologous protein baits used, the adenovirus E3 11.6 kD protein is of particular interest as that protein localizes on the nuclear envelope region and has an internal hydrophobic domain like the E1B 19 kD protein (Scaria et al., 1992).
B = Blue W = White [@]Interactions with all baits except the yeast SNF1 protein were carried out in yeast Strain GGY1::171. Interaction with SNF1 was carried out in yeast strain Y153. *Colonies which appeared on -his, -trp, -leu plates after 6–8 days. Results of X-gal staining are indicated as B, blue; W, white; or ND, not done. The heterologous baits pLAM5 (human lamin) and pAS-SNF1 (yeast SNF1) have been described (Bartel et al., 1993, Durfee et al., 1993). Baits pHIV-1 Rev, pHIV-1 Tat, pHIV-1 Nef and pHTLV-1 Rex expressing the various HIV or HTLV regulating proteins were constructed as described herein and obtained from Cleta D'Sa Eipper and T. Subramanian, St. Louis University Medical Center, St. Louis, MO.

[3] = biological target: human Bax (two-hybrid partner) (human, UniProt Q07812); experiment: yeast two-hybrid

B1: Nip2 (19K-interacting protein 2), protein coded by cDNA clone 44, tagged with the GAL4 activation domain (other)
chain: MEGVELKEEWQDEDFPIPLPEDDSIEADILAITGPEDQPGSLEVNGNKVRKKLMAPDISLTLDPSDGSVLSDDLDESGEIDLDGLDTPSENSNEFEWEDDLPKPKTTEVIRKGSITEYTAAEEKEDGRRWRMFRIGEQDHRVDMKAIEPYKKVISHGGYYGDGLNAIVVFAVCFMPESSQPNYRYLMDNLFKYVIGTLELLVAENYMIVYLNGATTRRKMPSLGWLRKCYQQIDRRLRKNLKSLIIVHPSWFIRTLLAVTRPFISSKFSQKIRYVFNLAELAEL
B1: no binding [1]; no binding [2].

B2: Nip1 (19K-interacting protein 1), protein coded by cDNA clone 22, tagged with the GAL4 activation domain (other)
chain: PQDVHVRICNQEIVKFDLEVKALIQDIRDCSGPLSALTELNTKVKEKFQQLRHRIQDLEQLAKEQDKESEKQLLLQEVENHKKQMLSNQASWRKANLTCKIAIDNLEKAELLQGGDLLRQRKTTKESLAQTSSTITESLMGISRMMAQQVQQSEEAMQSLVTSSRTILDANEEFKSMSGTIQLGRKLITKYNRRELTDKLLIFLALRLFLATVLYIVKKRLFPFL
B2: no binding [1]; no binding [3].
